Test results taken from PMC4212835.

Target: Enterococcus faecalis pyruvate dehydrogenase complex component E2 (dihydrolipoamide acetyltransferase) (Enterococcus faecalis)
Assay: SEC

Row | Substance | relative abundance of subunits E1, E2, and E3 (mass ratio, E2 = 1)
1 | Enterococcus faecalis pyruvate dehydrogenase complex component E3 (dihydrolipoyl dehydrogenase) (from UniProt A0ACD6TCW3 1-468) (enzyme) | 1.26 mass ratio
2 | Enterococcus faecalis pyruvate dehydrogenase complex component E1 (pyruvate dehydrogenase; E1α and E1β) (from UniProt A0ACD6TC15 1-371) | 2.27 mass ratio
